Test results as given in patent publication US20240391979A1 (ACHELOIS BIOPHARMA, published 2024).

Experiments:
[1] = target: Small Hepatitis B surface Antigen (S-HBsAg), HBV subtype not stated (Hepatitis B virus); assay: cell-based or functional assay
[2] = target: Small Hepatitis B surface Antigen (S-HBsAg), HBV subtype ayw (Hepatitis B virus, subtype ayw, UniProt P03138 1-226); assay: cell-based or functional assay
Small Hepatitis B surface Antigen (S-HBsAg), HBV subtype ayw, sequence (P03138 164-389): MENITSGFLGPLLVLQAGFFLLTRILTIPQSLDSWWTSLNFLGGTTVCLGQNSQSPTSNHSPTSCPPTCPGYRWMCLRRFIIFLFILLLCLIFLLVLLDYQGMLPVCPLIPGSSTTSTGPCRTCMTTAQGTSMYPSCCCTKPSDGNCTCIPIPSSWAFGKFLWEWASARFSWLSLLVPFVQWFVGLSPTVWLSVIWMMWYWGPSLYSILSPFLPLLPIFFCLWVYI

B1: bivalent, soluble H015 (antibody, V domains shown)
VH: QVQLVESGGGVAQPGRSLRLSCAASGFSFSRHGMHWVRQAPGKGLEWVAGIWFDGTNDYYTDSVKGRFTISRDNSRSTLYLDINSLRAEDTAVYYCAREDPHLLIATLDLWGLGTLVTVSS
VL: DIQVTQSPSSLSAFVGDRVTITCRASQGLTSFINWYQQKPGRAPKLLISSASSLQRGVPSRFTASGSGTHFTLTISSLQPEDFATYYCQQSYGTPALAFGGGTKVDIK
IC50, in vitro HDV neutralization in primary human hepatocytes (HDV RNA) [1]: 0.113 nM | IC50, in vitro HBV neutralization assay, HepG2-NTCP cells, ayw subtype [2]: 0.0836 nM
